In patent US20260139049A1 (published 2026) one finds EC50 data, which are given here for eight molecules.

Where a chain is given by its changes, count along the chain named. Like-named read-outs stand apart in the source and are kept apart here.

The target of assay [1] is T1, monkey CLDN6 (Cyno CLDN6) (monkey (Cyno)).
T1 chain: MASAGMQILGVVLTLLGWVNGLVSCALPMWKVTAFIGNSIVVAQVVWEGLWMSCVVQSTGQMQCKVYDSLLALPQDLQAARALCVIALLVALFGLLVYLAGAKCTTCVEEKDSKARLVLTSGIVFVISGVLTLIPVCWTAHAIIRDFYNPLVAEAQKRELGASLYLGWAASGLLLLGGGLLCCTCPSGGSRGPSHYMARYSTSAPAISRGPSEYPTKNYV
The experiment in a line: FACS.

A further assay concerns the target T2, mouse CLDN6 (mouse, UniProt Q9Z262 1-219).
T2 chain: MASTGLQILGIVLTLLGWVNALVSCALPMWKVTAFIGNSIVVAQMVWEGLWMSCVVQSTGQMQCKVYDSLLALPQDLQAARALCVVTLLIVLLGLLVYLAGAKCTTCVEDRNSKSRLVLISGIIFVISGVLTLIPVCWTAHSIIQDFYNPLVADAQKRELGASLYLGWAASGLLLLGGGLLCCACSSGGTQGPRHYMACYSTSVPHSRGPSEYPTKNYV
The experiment in a line: FACS.

For assay [2], the target named is T1, monkey CLDN6 (Cyno CLDN6). As to the kind of experiment: FACS.
In assay [3] the target is T3, human CLDN6 (human, UniProt P56747 1-220).
T3 chain: T1 chain with R191Q
As to the kind of experiment: FACS; HepG2 cells.

Assay [4] deals with T3, human CLDN6. As to the kind of experiment: FACS; HepG2 cells, FIG. 24.

B1: PiH2006 (antibody, V domains shown)
VH: QVQLVQSGAEVKKPGASVKVSCKASGYTFTDYNMHWVRQAPGQRLEWIGYINPNNGATNYNQKFKGRVTITVDTSASTAYMELSSLRSEDTAVYNCARWDGYVYYYGMDYWGQGTLVTVSS
VL: DIQMTQSPSSLSASVGGRVTITCKASDHINNWLAWYQQKPGKAPKLLISGATSLETGVPSRFSGSGSGTDYTFTISSLQPEDIATYYCQQYWNTPYTFGGGTKLEIKR
On to B1, for which the results for the EC50 (in assay [1]; with mouse CLDN6) were 1.33 mg/L and 52.3 mg/L, respectively.

B2: PiH1008 (antibody, V domains shown)
VH: B1 VH with R44S, I51V, N59S, V68A, I70M, T74K, A76T, A79V, M108L
VL: B1 VL with A43V, K45R, F73L, I83V, N93S
For B2, the concentration for a half-maximal effect (EC50) with mouse CLDN6 came out at 6.42 mg/L; in assay [2], 0.97 mg/L.

B3: PiH1006 (antibody, V domains shown)
VH: B1 VH with R44G, I51V, N59S, I70M, A76T, A79V, M108L
VL: B1 VL with A43V, K45R, F73L, I83V, N93S
With B3, the EC50 with mouse CLDN6 was found to be 18.4 mg/L; in assay [2] it was 1.28 mg/L.

B4: PiH1004 (antibody, V domains shown)
VH: B1 VH with R44S, I51V, N59S, V68A, I70M, T74K, A76T, A79V, M108L
VL: B1 VL with G17D, A43V, F73L, I83V, N93S
For the molecule B4, the EC50 with mouse CLDN6 worked out at 8.57 mg/L; in assay [2], 0.844 mg/L.

B5: RecA101 (antibody, V domains shown)
VH: EVQLQQSGPELVKPGASVKMSCKASGYTFTDYNMHWVKKSHGKSLEWIGYVNPNNGATSYNQKFKGKATLTVNKSSSTAYMELRSLTSEDSAVYNCARWDGYVYYYGLDYWGQGTSVTVSS
VL: DIQMTQSSSYLSVSLGGRVTITCKASDHINNWLAWYQQKPGNAPRLLISGATSLETGVPSRFSGSGSGKDYTLSITSLQTEDVATYYCQQYWNTPYTFGGGTKLEIKR
B5 yielded an EC50 in the assay with human CLDN6 [3] of 0.521 mg/L.

B6: 54B5A7 (antibody, V domains shown)
VH: B5 VH with V51I, S59N, L108M
VL: B5 VL
For B6, a half-maximal response in the assay with mouse CLDN6 (EC50) required 0.844 mg/L.

B7: 51C10H4 (antibody, V domains shown)
VH: B5 VH
VL: B5 VL with N93S
Turning to B7, the concentration for a half-maximal effect (EC50) with mouse CLDN6 was found to be 0.608 mg/L; in assay [2] it was 0.636 mg/L.

B8: IMAB027 (antibody, V domains shown)
VH: EVQLQQSGPELVKPGASMKISCKASGYSFTGYTMNWVKQSHGKNLEWIGLINPYNGGTIYNQKFKGKATLTVDKSSSTAYMELLSLTSEDSAVYYCARDYGFVLDYWGQGTTLTVSS
VL: IVLTQSPAIMSASPGEKVTITCSASSSVSYLHWFQQKPGTSPKLWVYSTSNLPSGVPARFGGSGSGTSYSLTISRMEAEDAATYYCQQRSIYPPWTFGGGTKLEIKR
In the case of B8, the half-maximal effective concentration (EC50) was 0.0916 mg/L in assay [1], 0.0916 mg/L in assay [2] and 0.537 mg/L with human CLDN6 [4].
